Experiments:
D monomer = D monomer (UniProt P02671); assay: competitive inhibition ELISA: HRP-B4 pre-incubated with soluble antigen, then added to a D-dimer-coated plate
human D-dimer (human) = human D-dimer (human) (UniProt P02671); assay: as above

- reactivity (D monomer): 5 µM
- Kd (human D-dimer (human)): 0.98 nM
Substance: monoclonal antibody B4

Reference: US20190011465A1
